Data reported in the supplement of paper PMC10567573.

B1: TRIM55 (parent)
chain: YKSFSKEQQTMDNLEKQLICPICL
B2: SAT2 (parent)
chain: GYGIYYFIYSTWKGRTIYLEDIYV

Variants of: B1
Test: protein stability index of a GFP-peptide fusion (GPS, HEK-293T) (PSI 1-6); higher = more stable
Conditions: c terminus: a fixed tail appended
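Note: lentivirally expressed fusions sorted by FACS into six bins by GFP to DsRed ratio, PSI derived from sequencing read proportions per bin multiplied by bin number.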

Protein stability index of substitutions, site by site:
F4: S 2.64 | Q 2.37 | R 2.66 | Y 2.34 | M 2 | L 2.27 | D 2.43 | C 2.59 | H 2.8 | W 1.74 | N 2.45 | P 2.9 | V 2.24 | K 2.63 | G 2.49 | E 2.49 | I 2.23 | T 2.44 | A 2.74
M11: F 2.24 | T 2.12 | R 2.77 | H 1.82 | N 3.68 | G 2.22 | Q 2.69 | L 2.3 | C 2.47 | K 2.54 | V 2.68 | D 2.68 | E 2.69 | S 2.29 | A 2.74 | W 1.55 | I 1.83 | P 2.66 | Y 2.1
K6: W 2.51 | N 2.04 | E 2.04 | T 2.09 | Y 1.98 | L 2.91 | M 1.57 | S 2.14 | A 2.91 | I 1.85 | H 1.85 | V 1.49 | P 2.05 | F 1.3 | Q 2.29 | C 2.41 | R 2.63 | G 2.15
T10: V 2.04 | A 1.74 | G 2.27 | P 2.53 | R 2.03 | I 1.65 | F 1.29 | N 2.26 | Y 1.92 | C 2.82 | M 1.9 | Q 2.31 | E 2.33 | K 2.54 | S 2.46 | L 2.18 | D 2.08 | H 2.03 | W 1.77
Y1: C 2.7 | A 2.5 | P 2.7 | L 2.94 | K 2.68 | M 2.5 | D 3.46 | R 2.83 | F 2.02 | W 2.17 | G 2.35 | S 3.02 | I 1.99 | N 2.48 | E 2.48 | H 3.12 | V 1.97 | Q 2.15 | T 2.62
Q8: H 2.37 | W 1.66 | G 2.83 | D 2.07 | V 2.09 | I 2.1 | T 2.17 | N 2.18 | E 2.3 | F 1.54 | K 1.8 | C 1.96 | S 2.29 | P 2 | R 1.72 | L 1.75 | Y 2 | A 2.65 | M 1.96
S3: Y 1.44 | P 2.05 | M 1.85 | I 1.94 | V 2.07 | A 2.02 | L 1.69 | H 2.45 | E 2.25 | D 2.47 | K 2.44 | W 2.18 | C 2 | G 1.69 | F 1.65 | Q 2.2 | R 2.43 | N 2.32 | T 2.69
Q9: H 1.98 | N 2.22 | I 1.79 | R 2.5 | Y 2.7 | T 1.57 | G 2.39 | D 2.8 | K 2.15 | S 1.75 | F 1.79 | A 2.25 | L 1.87 | V 1.76 | W 1.67 | C 2.15 | E 2.08 | M 2.17 | P 2.16
E7: Y 1.72 | C 1.98 | D 2.29 | G 1.53 | W 1.83 | L 1.35 | T 1.96 | P 2.27 | H 2.36 | V 1.6 | K 2.25 | N 2.18 | F 1.87 | Q 1.67 | R 1.87 | M 2.37 | I 2.4 | A 2.08 | S 1.67
S5: A 1.89 | C 2.73 | P 2.07 | D 2.18 | K 2.48 | R 2.11 | I 1.96 | Y 2.26 | F 1.71 | W 1.37 | V 1.99 | Q 2.19 | L 1.34 | T 1.92 | H 1.81 | G 2.13 | E 2.26 | N 2.4 | M 2.11
D12: F 2.68 | I 1.93 | A 2.04 | C 2.17 | G 2.56 | K 2.98 | H 1.93 | E 2.59
K2: P 2.5 | M 2.1 | W 1.96 | F 2.09 | H 1.29 | L 2.52 | C 1.93 | I 1.56 | A 2.02 | T 1.83 | V 2.05 | G 2.92 | N 2.12 | E 1.73 | R 1.73 | S 2.38 | Q 1.59 | D 2.36 | Y 1.95

Variants of: B2
Test: as above
Conditions: c terminus: a fixed tail appended

Protein stability index: each site, then its substitutions
Y2: R 2.58 | F 1.06 | D 2.06 | V 2.26 | W 2.38 | N 3.27 | H 3.91
T11: Q 2.72 | N 4.08 | H 3.48 | Y 2.83 | F 2.43 | C 4.22 | R 2.28
V24: R 2.39 | P 2.3 | F 2.91 | I 1.48 | C 3.63
I17: Y 2.1 | W 2.17 | V 2.27 | G 2.82 | R 1.72 | A 3.11
Y9: I 1.62 | P 2.71 | G 2.77 | R 3.86 | M 3.46
T16: E 2.53 | V 3.24 | G 3.31 | C 2.83 | A 3.27
G3: S 3.29 | H 2.85 | D 2.8 | I 1.59 | E 2.58 | R 2.96 | Y 2.19
I4: M 3.54 | K 2.7 | G 1.88 | H 2.53
Y23: W 2.35 | M 2.71 | A 2.89 | L 1.08 | H 3.07 | N 3.18
K13: E 3.58 | I 2.8 | S 2.39 | R 3.04 | T 2.87
Y18: K 1.88 | F 3.01 | C 1.89
I22: H 2.55 | Y 2.09
S10: C 2.53 | Q 2.29
D21: R 1.47 | C 2.34 | I 3.08 | K 4.17 | L 2.9 | T 1.75
G1: S 2.41 | H 2.72 | L 3.6 | E 2.96
Y5: I 2.59 | H 2.42
G14: P 2.33 | L 2.47 | S 2.5 | R 3.28 | V 5.04 | C 5.03 | M 1.94 | Q 3.24 | I 2.04
W12: F 2.8 | P 2.36 | S 4.37 | N 3.5 | T 2.5 | M 4.12
E20: C 3.04 | A 3.56 | P 2.91 | R 3.97 | F 2.84 | G 2.26 | M 4.05 | T 2.4
F7: G 3.36 | R 2.72 | D 3.03 | V 3.39 | L 2.92
R15: A 4.7 | G 2.53 | S 2.1 | L 3.07 | F 4.58 | C 3.31 | N 2.37 | P 2.17 | T 3.03
L19: I 4.11
I8: H 2.93 | F 3.4 | E 3.68 | Y 3.28
